This experiment has as its target F-actin (filamentous actin), actin purified from chicken breast (Gallus gallus) (chicken (Gallus gallus)), P68139. The experiment can be described thus: co-sedimentation. The note with it: remark: other sources report otherwise.

B1: Human UTRN-ABD (utrophin actin-binding domain, amino acids 1-261), wild type, P46939 1-261 (domain or fragment)
chain: MAKYGEHEASPDNGQNEFSDIIKSRSDEHNDVQKKTFTKWINARFSKSGKPPINDMFTDLKDGRKLLDLLEGLTGTSLPKERGSTRVHALNNVNRVLQVLHQNNVELVNIGGTDIVDGNHKLTLGLLWSIILHWQVKDVMKDVMSDLQQTNSEKILLSWVRQTTRPYSQVNVLNFTTSWTDGLAFNAVLHRHKPDLFSWDKVVKMSPIERLEHAFSKAQTYLGIEKLLDPEDVAVQLPDKKSIIMYLTSLFEVLPQQVTID
As a reminder, the Kd is a measure of binding affinity in units of concentration. A lower Kd goes with a tighter complex. B1 returned an equilibrium dissociation constant (Kd) of 1800 nM.

Source of the values: paper PMC7360965.
